The values that follow come from US20190055556A1 (Stanford University, published 2019).

The labels stand for the following.
T1: brevican (BCAN) (human, UniProt Q96GW7 23-911, limits assumed)
T1 construct: Control protein of the pull-down assay
T1 sequence (looked up): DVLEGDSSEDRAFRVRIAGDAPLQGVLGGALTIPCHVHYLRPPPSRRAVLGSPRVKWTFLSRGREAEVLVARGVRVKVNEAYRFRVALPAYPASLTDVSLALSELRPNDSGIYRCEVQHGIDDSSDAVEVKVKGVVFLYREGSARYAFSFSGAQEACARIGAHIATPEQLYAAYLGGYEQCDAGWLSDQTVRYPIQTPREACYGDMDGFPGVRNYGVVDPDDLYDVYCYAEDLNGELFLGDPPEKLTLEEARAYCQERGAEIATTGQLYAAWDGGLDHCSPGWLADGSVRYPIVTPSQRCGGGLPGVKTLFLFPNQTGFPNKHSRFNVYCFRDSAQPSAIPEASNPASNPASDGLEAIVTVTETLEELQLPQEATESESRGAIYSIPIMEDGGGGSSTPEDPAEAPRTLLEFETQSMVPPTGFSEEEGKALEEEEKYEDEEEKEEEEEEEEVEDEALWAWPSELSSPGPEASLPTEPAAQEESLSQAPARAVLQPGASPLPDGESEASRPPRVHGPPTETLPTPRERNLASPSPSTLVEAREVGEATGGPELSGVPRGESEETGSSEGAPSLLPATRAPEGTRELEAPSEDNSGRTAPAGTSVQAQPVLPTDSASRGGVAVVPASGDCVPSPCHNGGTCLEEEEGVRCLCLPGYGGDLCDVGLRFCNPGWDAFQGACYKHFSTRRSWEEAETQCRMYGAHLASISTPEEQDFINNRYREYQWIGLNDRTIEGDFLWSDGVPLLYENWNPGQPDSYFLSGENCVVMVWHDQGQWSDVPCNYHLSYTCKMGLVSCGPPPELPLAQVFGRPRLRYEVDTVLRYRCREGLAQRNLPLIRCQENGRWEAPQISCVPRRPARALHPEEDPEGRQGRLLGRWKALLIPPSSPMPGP

B1: secreted protein acidic and rich in cysteine (SPARC) (other, human, UniProt P09486 18-303, looked up)
chain: APQQEALPDETEVVEETVAEVTEVSVGANPVQVEVGEFDDGAEETEEEVVAENPCQNHHCKHGKVCELDENNTPMCVCQDPTSCPAPIGEFEKVCSNDNKTFDSSCHFFATKCTLEGTKKGHKLHLDYIGPCKYIPPCLDSELTEFPLRMRDWLKNVLVTLYERDEDNNLLTEKQKLRVKKIHENEKRLEAGDHPVELLARDFEKNYNMYIFPVHWQFGQLDQHPIDGYLSHTELAPLRAPLIPMEHCTTRFFETCDLDNDKYIALDEWAGCFGIKQKDIDKDLVI
notes: Endogenous protein in SVZ hNPC conditioned media
B2: pleiotrophin (PTN) (ligand, human, UniProt P21246 33-168, looked up)
chain: GKKEKPEKKVKKSDCGEWQWSVCVPTSGDCGLGTREGTRTGAECKQTMKTQRCKIPCNWKKQFGAECKYQFQAWGECDLNTALKTRTGSLKRALHNAECQKTVTISKPCGKLTKPKPQAESKKKKKEGKKQEKMLD
notes: In the SEC and co-IP experiments this is the endogenous protein in SVZ hNPC conditioned media
B3: SPARC-like protein 1 (SPARCL1) (other, human, UniProt Q14515 17-664, looked up)
chain: IPTNARLLSDHSKPTAETVAPDNTAIPSLRAEAEENEKETAVSTEDDSHHKAEKSSVLKSKEESHEQSAEQGKSSSQELGLKDQEDSDGHLSVNLEYAPTEGTLDIKEDMSEPQEKKLSENTDFLAPGVSSFTDSNQQESITKREENQEQPRNYSHHQLNRSSKHSQGLRDQGNQEQDPNISNGEEEEEKEPGEVGTHNDNQERKTELPREHANSKQEEDNTQSDDILEESDQPTQVSKMQEDEFDQGNQEQEDNSNAEMEEENASNVNKHIQETEWQSQEGKTGLEAISNHKETEEKTVSEALLMEPTDDGNTTPRNHGVDDDGDDDGDDGGTDGPRHSASDDYFIPSQAFLEAERAQSIAYHLKIEEQREKVHENENIGTTEPGEHQEAKKAENSSNEEETSSEGNMRVHAVDSCMSFQCKRGHICKADQQGKPHCVCQDPVTCPPTKPLDQVCGTDNQTYASSCHLFATKCRLEGTKKGHQLQLDYFGACKSIPTCTDFEVIQFPLRMRDWLKNILMQLYEANSEHAGYLNEKQRNKVKKIYLDEKRLLAGDHPIDLLLRDFKKNYHMYVYPVHWQFSELDQHPMDRVLTHSELAPLRASLVPMEHCITRFFEECDPNKDKHITLKEWGHCFGIKEEDIDENLLF
notes: as for B1
B4: insulin-like growth factor binding protein 2 (IGFBP2) (other, human, UniProt P18065 36-325, looked up)
chain: AEVLFRCPPCTPERLAACGPPPVAPPAAVAAVAGGARMPCAELVREPGCGCCSVCARLEGEACGVYTPRCGQGLRCYPHPGSELPLQALVMGEGTCEKRRDAEYGASPEQVADNGDDHSEGGLVENHVDSTMNMLGGGGSAGRKPLKSGMKELAVFREKVTEQHRQMGKGGKHHLGLEEPKKLRPPPARTPCQQELDQVLERISTMRLPDERGPLEHLYSLHIPNCDKHGLYNLKQCKMSLNGQRGECWCVNPNTGKLIQGAPTIRGDPECHLFYNEQQEARGVHTQRMQ
notes: Control protein of the pull-down assay

What all share (assay): co-immunoprecipitation from SVZ hNPC conditioned media, Western blot
A general note: In western blotting, separated proteins are transferred to a membrane and probed.

The target in one test is T1, brevican (BCAN). Here is the method:
(§1) To assess the specificity of the pull-down assay, three control proteins also present in SVZ hNPC CM: 78 kDa glucose-regulated protein (GRP78), insulin-like growth factor binding protein 2 (IGFBP2), and brevican (BCAN), were immunoprecipitated and were not found to copurify with any of the four proteins (FIG. 4D).
(§2) Immunoprecipitation reactions were conducted using the Pierce Crosslink Magnetic IP/Co-IP Kit (Thermo Scientific, Waltham, Mass.). 25 μL of Pierce Protein A/G Magnetic Beads per reaction were rinsed and incubated with 5 μg of antibody on a rotating platform for 15 minutes at room temperature. Antibodies used were: mouse anti-pleiotrophin (Santa Cruz Biotechnology, Santa Cruz, Calif.), rabbit anti-SPARC (Santa Cruz Biotechnology, Santa Cruz, Calif.), mouse anti-SPARCL1 (Santa Cruz Biotechnology, Santa Cruz, Calif.), rabbit anti-HSP90B (GeneTex, Irvine, Calif.), rabbit normal IgG (Santa Cruz Biotechnology, Santa Cruz, Calif.), and mouse normal IgG (Santa Cruz Biotechnology, Santa Cruz, Calif.). Beads were rinsed, and subsequently crosslinked to the antibodies using 0.02 mM DSS for 30 minutes at room temperature. Beads were washed and then incubated with a mixed combination of 250 μL neural precursor cell conditioned media and 250 μL IP lysis/wash buffer overnight at 4° C. The following morning, beads were washed, resuspended in Laemmli loading buffer, and boiled at 100° C. for 5 minutes to release the bound antigens from the beads. Samples were loaded immediately onto Western blots for analysis of the bound antigens, or stored at −20° C. for future analysis. For Western blot analysis, 2% of the input conditioned media was loaded, and 5% of the IP bound antigen samples were loaded.

Test [1] has as its target B4. Here is the method:
as §1, §2

The target in test [2] is T2, 78 kDa glucose-regulated protein (GRP78) (human, UniProt P11021 19-654).
T2 construct: Control protein of the pull-down assay
T2 sequence (P11021 19-654 limits assumed): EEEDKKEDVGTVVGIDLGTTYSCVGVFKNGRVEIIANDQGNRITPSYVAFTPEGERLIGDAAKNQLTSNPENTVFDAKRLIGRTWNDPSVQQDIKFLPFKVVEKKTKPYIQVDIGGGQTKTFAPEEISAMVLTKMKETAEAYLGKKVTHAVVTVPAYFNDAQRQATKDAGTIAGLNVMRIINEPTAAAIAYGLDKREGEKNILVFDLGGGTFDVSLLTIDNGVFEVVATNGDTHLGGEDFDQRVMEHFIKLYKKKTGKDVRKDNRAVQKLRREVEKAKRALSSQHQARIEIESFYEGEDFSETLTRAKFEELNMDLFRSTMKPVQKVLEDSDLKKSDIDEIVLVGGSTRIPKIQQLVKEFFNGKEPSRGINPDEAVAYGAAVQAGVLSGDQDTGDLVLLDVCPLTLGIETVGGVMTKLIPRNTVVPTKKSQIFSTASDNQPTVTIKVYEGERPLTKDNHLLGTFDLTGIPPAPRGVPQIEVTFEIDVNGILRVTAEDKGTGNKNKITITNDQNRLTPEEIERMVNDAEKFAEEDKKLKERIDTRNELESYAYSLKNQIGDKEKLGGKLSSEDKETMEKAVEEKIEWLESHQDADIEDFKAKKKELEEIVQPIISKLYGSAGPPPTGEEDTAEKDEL
The protocol: as §1, §2

For test [3], the target named is B3. The protocol: as §1, §2
For test [4], the target named is T3, heat shock protein 90B (HSP90B) (human, UniProt P14625 22-803, limits assumed).
T3 construct: Endogenous protein in SVZ hNPC conditioned media; 'HSP90B' alone is ambiguous
T3 sequence (P14625 22-803 limits assumed): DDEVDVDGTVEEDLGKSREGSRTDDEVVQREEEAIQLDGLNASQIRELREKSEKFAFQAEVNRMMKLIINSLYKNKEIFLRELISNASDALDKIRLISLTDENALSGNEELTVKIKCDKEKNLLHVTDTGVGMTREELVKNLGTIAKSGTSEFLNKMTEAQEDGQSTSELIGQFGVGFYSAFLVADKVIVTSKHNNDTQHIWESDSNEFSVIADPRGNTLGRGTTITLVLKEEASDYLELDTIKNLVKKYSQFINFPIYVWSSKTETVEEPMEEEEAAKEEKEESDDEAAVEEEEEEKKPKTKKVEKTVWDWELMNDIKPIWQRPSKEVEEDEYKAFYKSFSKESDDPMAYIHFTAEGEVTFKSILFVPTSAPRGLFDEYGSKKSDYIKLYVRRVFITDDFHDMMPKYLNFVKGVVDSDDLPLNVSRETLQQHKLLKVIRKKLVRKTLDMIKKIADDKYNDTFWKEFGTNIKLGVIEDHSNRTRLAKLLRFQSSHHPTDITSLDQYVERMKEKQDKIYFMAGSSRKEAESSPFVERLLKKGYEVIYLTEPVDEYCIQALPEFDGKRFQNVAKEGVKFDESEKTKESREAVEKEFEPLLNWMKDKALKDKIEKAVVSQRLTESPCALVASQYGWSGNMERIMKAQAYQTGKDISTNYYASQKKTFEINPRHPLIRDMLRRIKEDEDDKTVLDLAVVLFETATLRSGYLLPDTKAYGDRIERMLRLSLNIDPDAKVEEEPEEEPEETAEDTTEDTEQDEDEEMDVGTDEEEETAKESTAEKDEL
Here is the method: as §1, §2

Take B1: the binding result (in the test with brevican (BCAN); in test [1]) was “no binding” throughout.
With B2, the binding result (with brevican (BCAN); in test [2]; in test [1]) was “no binding” in each case.
For B3, the binding result with brevican (BCAN) was “no binding”.
As to B4, the binding result in test [3] and in test [4] was “no binding” in each case.
